Measured values: PMC8892085, “Molecular insights into the interaction between human nicotinamide phosphoribosyltransferase and Toll-like receptor 4” (The Journal of Biological Chemistry, 2022)
Substitutions are numbered along the chain they refer to.

Legend:
[1] = target: the molecule itself; assay: SEC; Superose 12 10/300 GL, 50 mM Hepes pH 7.5, 0.3 M NaCl; proteins loaded at 0.9 mg/ml; standards BSA, ovalbumin, carbonic anhydrase
[2] = target: T1, Toll-like receptor 4 (TLR4) (human, UniProt O00206 24-629); assay: SPR; evanescent wave/resonant mirror optical biosensor (IAsys plus), called surface plasmon resonance by the paper; TLR4 covalently anchored (EDC/NHS) to carboxylate cuvettes, 1.3 ng/mm^2; NAMPT proteins soluble, 1 to 3 nM; PBS; 37 °C; monoexponential fit; details: both partners purified
T1 construct: Toll-like receptor 4 (TLR4) from the plasmid pEFBOS-TLR4 (Dr Kensuke Miyake); the introduction speaks of the extracellular domain of TLR4; human TLR4 (AAY82270.1) is named for the docking model; Cells were lysed with 0.3% Triton X-100, which may mean the whole receptor; Anchored to the sensor 'via the N terminus of the histidine tail'; also called biosensor-tethered TLR4
T1 sequence (O00206 24-629): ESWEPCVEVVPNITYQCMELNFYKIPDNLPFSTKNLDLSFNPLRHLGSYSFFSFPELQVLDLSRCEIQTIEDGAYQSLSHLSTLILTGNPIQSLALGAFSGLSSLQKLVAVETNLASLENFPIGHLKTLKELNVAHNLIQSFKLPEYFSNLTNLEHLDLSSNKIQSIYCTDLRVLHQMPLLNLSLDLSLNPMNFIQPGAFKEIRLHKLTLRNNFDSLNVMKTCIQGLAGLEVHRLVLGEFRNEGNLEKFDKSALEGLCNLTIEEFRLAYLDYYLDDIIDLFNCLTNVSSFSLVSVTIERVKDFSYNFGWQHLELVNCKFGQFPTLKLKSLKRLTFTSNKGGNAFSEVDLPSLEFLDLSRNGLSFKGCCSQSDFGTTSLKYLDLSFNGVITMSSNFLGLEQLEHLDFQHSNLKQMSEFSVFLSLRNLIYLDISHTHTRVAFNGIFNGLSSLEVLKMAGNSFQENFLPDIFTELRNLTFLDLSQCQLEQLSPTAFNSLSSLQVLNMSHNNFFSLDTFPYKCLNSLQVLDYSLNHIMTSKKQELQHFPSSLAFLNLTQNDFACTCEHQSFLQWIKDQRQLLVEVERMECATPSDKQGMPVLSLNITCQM

B1: human nicotinamide phosphoribosyltransferase (NAMPT), wildtype (enzyme)
chain: MNPAAEAEFNILLATDSYKVTHYKQYPPNTSKVYSYFECREKKTENSKLRKVKYEETVFYGLQYILNKYLKGKVVTKEKIQEAKDVYKEHFQDDVFNEKGWNYILEKYDGHLPIEIKAVPEGFVIPRGNVLFTVENTDPECYWLTNWIETILVQSWYPITVATNSREQKKILAKYLLETSGNLDGLEYKLHDFGYRGVSSQETAGIGASAHLVNFKGTDTVAGLALIKKYYGTKDPVPGYSVPAAEHSTITAWGKDHEKDAFEHIVTQFSSVPVSVVSDSYDIYNACEKIWGEDLRHLIVSRSTQAPLIIRPDSGNPLDTVLKVLEILGKKFPVTENSKGYKLLPPYLRVIQGDGVDINTLQEIVEGMKQKMWSIENIAFGSGGGLLQKLTRDLLNCSFKCSYVVTNGLGINVFKDPVADPNKRSKKGRLSLHRTPAGNFVTLEEGKGDLEEYGQDLLHTVFKNGKVTKSYSFDEIRKNAQLNIELEAAHH
notes: nicotinamide phosphoribosyltransferase (NAMPT), human, UniProt P43490; also called WT; HsNAMPT; source: ClearColi BL21 (DE3), purified (Ni-NTA, PD10; ε-poly-L-lysine resin to remove endotoxin)
B1 was tested, and the “stoichiometry N” value [1] was 2, the Kd [2] was 17.8 nM and the koff [2] was 0.005 ± 0.001 s⁻¹. For the same binder, the kon [2] was 280000 M⁻¹ s⁻¹.

B2: NAMPT α-loop triple mutant K(68>73)A (enzyme, human)
chain: B1 chain with K68A, K71A, K73A
notes: nicotinamide phosphoribosyltransferase (NAMPT), human, UniProt P43490; mutagenised pET15b plasmid; source: ClearColi BL21 (DE3), purified (Ni-NTA, PD10; ε-poly-L-lysine resin to remove endotoxin)
In the case of B2, the “stoichiometry N” value [1] is reported as 2, the Kd [2] is reported as 1280 nM and the koff [2] is reported as 0.004 ± 0.002 s⁻¹. It also gave a kon [2] of 3100 M⁻¹ s⁻¹.

B3: NAMPT β-loop full mutant K/R(42>51)A (enzyme, human)
chain: B1 chain with K42A, K43A, K48A, R50A, K51A
notes: nicotinamide phosphoribosyltransferase (NAMPT), human, UniProt P43490; mutagenised pET15b plasmid; the entire set of positive residues of the β1-β2 K-rich loop (residues 42-51) replaced with alanine; source: ClearColi BL21 (DE3), purified (Ni-NTA, PD10; ε-poly-L-lysine resin to remove endotoxin)
B3 was tested, and the “stoichiometry N” value [1] was 2, the Kd [2] was 630 nM and the koff [2] was 0.085 ± 0.023 s⁻¹. The kon [2] was 130000 M⁻¹ s⁻¹.

B4: NAMPT β-loop double mutant K(42/48)A (enzyme, human)
chain: B1 chain with K42A, K48A
notes: nicotinamide phosphoribosyltransferase (NAMPT), human, UniProt P43490; mutagenised pET15b plasmid; K42 and K48 replaced with alanine; source: ClearColi BL21 (DE3), purified (Ni-NTA, PD10; ε-poly-L-lysine resin to remove endotoxin)
B4 was tested, and the “stoichiometry N” value [1] was 2, the Kd [2] was 37.1 nM and the koff [2] was 0.029 ± 0.003 s⁻¹. It also gave a kon [2] of 780000 M⁻¹ s⁻¹.

B5: NAMPT α-loop double mutant K(68/71)S (enzyme, human)
chain: B1 chain with K68S, K71S
notes: nicotinamide phosphoribosyltransferase (NAMPT), human, UniProt P43490; mutagenised pET15b plasmid; K68 and K71 replaced with serine; source: ClearColi BL21 (DE3), purified (Ni-NTA, PD10; ε-poly-L-lysine resin to remove endotoxin)
B5 was tested, and the “stoichiometry N” value [1] was 2, the Kd [2] was 20.8 nM and the koff [2] was 0.01 ± 0.004 s⁻¹. It also gave a kon [2] of 480000 M⁻¹ s⁻¹.

B6: NAMPT β-loop deletion mutant Δ(42>51) (enzyme, human)
chain: MNPAAEAEFNILLATDSYKVTHYKQYPPNTSKVYSYFECREVKYEETVFYGLQYILNKYLKGKVVTKEKIQEAKDVYKEHFQDDVFNEKGWNYILEKYDGHLPIEIKAVPEGFVIPRGNVLFTVENTDPECYWLTNWIETILVQSWYPITVATNSREQKKILAKYLLETSGNLDGLEYKLHDFGYRGVSSQETAGIGASAHLVNFKGTDTVAGLALIKKYYGTKDPVPGYSVPAAEHSTITAWGKDHEKDAFEHIVTQFSSVPVSVVSDSYDIYNACEKIWGEDLRHLIVSRSTQAPLIIRPDSGNPLDTVLKVLEILGKKFPVTENSKGYKLLPPYLRVIQGDGVDINTLQEIVEGMKQKMWSIENIAFGSGGGLLQKLTRDLLNCSFKCSYVVTNGLGINVFKDPVADPNKRSKKGRLSLHRTPAGNFVTLEEGKGDLEEYGQDLLHTVFKNGKVTKSYSFDEIRKNAQLNIELEAAHH
notes: nicotinamide phosphoribosyltransferase (NAMPT), human, UniProt P43490; pET15b plasmid changed with the In-Fusion kit; the β1-β2 K-rich loop fully deleted; also called ΔK(42>51); β-loop deleted mutant; source: ClearColi BL21 (DE3), purified (Ni-NTA, PD10; ε-poly-L-lysine resin to remove endotoxin)
B6 was tested, and the “stoichiometry N” value [1] was 2, the Kd [2] was 218 nM and the koff [2] was 0.07 ± 0.02 s⁻¹. For the same binder, the kon [2] was 320000 M⁻¹ s⁻¹.
